Each block holds one binder with its values, some of them ahead of it.
How the values were obtained:
[1] = molecular target: T1, human ASGPR H1 on ASGPR-positive hepatic cells (HepG2, primary human hepatocytes, Huh-7) (human, UniProt P07306 1-291); test: FACS on HepG2 cells, human IgG1 at 0.01 to 10 µg/ml
T1 construct: whole, on cells; Endogenous receptor on cells; the antibodies were selected on H1; also called surface-exposed ASGPR
T1 sequence (looked up): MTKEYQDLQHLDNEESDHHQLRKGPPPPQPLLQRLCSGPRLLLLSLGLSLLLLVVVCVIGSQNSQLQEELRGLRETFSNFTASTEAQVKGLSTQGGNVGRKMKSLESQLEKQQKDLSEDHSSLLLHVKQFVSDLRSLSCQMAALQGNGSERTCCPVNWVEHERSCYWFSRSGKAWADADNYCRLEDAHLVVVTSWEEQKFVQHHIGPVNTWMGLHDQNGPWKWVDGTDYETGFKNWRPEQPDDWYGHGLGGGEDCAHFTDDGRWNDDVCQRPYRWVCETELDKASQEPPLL

[2] = molecular target: T1, human ASGPR H1 on ASGPR-positive …; test: FACS on HepG2 cells, human IgG1 in a dilution row up to 20 µg/ml, 30 min at 4°C, FITC anti-human IgG Fc secondary
[3] = molecular target: T1, human ASGPR H1 on ASGPR-positive …; test: FACS on HepG2 cells, human IgG1 at 30 µg/ml, 30 min at 4°C, FITC anti-human IgG Fc secondary F(ab')2
[4] = molecular target: T2, avi-Fc-human ASGPR H1 stalk CRD (human, biotinylated at the N-terminal Avi tag); test: SPR (ProteOn XPR36), antigen captured by neutravidin, Fab as analyte;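 as to Kd: antigen surface loaded to 200, 400 or 800 RU in PBST pH 7.4, sensorgrams referenced against a buffer-only in-line channel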;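 as to koff: antigen surface loaded to 200, 400 or 800 RU in PBST pH 7.4, sensorgrams referenced against a buffer-only in-line channel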;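 as to kon: antigen surface loaded to 200, 400 or 800 RU in PBST pH 7.4, sensorgrams referenced against a buffer-only in-line channel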
T2 construct: Homodimeric (bivalent) Fc fusion of the human ASGPR H1 ECD (stalk and CRD); also called huASGPR H1 stalk CRD; Fc-stalk-CRD

[5] = molecular target: T3, avi-Fc-human ASGPR H1 stalk (human, biotinylated at the N-terminal Avi tag); test: as above
T3 construct: Homodimeric Fc fusion (wild type Fc); also called huASGPR H1 stalk; Fc-stalk

[6] = molecular target: T4, avi-Fc-cynomolgus ASGPR H1 stalk (cynomolgus, biotinylated at the N-terminal Avi tag); test: as above
T4 construct: Homodimeric Fc fusion (wild type Fc); also called cyASGPR H1 stalk

[7] = molecular target: T5, avi-Fc-human CLEC10A stalk CRD (human, biotinylated at the N-terminal Avi tag); test: as above
T5 construct: Homodimeric Fc fusion of the human CLEC10A ECD, closest homologue of ASGPR H1, used as specificity control; also called huCLEC10A stalk CRD

[8] = molecular target: T6, avi-Fc-human ASGPR H1 CRD (human, UniProt P0DOX5 223-449 = IgG part, biotinylated at the N-terminal Avi tag); test: SPR (ProteOn XPR36), antigen captured by neutravidin, antibody construct as analyte
T6 construct: also called Fc-CRD; hu/cyASGPR H1 CRD

[9] = molecular target: T1, human ASGPR H1 on ASGPR-positive …; test: FACS on HepG2 cells, antibody 1.25, 6 and 30 µg/ml without or with Alexa488 asialofetuin (100 µg/ml), APC anti-human IgG Fc detection

T3 sequence (chain, as listed by the source limits assumed): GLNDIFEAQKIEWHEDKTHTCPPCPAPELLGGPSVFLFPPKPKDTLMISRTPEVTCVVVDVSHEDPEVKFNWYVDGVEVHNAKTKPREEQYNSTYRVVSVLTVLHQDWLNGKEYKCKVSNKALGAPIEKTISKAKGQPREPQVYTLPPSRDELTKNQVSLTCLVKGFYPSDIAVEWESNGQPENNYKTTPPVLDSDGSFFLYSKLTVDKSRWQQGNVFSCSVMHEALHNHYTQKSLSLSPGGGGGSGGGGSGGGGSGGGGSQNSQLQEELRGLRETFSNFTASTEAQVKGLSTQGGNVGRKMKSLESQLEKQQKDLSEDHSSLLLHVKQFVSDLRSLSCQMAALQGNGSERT
T4 sequence (chain, as listed by the source limits assumed): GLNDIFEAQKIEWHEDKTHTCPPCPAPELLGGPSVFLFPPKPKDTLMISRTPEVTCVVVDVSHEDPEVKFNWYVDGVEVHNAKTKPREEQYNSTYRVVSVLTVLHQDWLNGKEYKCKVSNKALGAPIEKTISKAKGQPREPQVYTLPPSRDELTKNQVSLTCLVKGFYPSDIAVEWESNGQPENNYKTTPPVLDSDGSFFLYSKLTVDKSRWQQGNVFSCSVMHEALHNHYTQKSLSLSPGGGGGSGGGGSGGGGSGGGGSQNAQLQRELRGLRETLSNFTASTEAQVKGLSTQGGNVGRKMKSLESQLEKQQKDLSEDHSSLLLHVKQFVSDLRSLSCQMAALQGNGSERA
T5 sequence (chain, as listed by the source limits assumed): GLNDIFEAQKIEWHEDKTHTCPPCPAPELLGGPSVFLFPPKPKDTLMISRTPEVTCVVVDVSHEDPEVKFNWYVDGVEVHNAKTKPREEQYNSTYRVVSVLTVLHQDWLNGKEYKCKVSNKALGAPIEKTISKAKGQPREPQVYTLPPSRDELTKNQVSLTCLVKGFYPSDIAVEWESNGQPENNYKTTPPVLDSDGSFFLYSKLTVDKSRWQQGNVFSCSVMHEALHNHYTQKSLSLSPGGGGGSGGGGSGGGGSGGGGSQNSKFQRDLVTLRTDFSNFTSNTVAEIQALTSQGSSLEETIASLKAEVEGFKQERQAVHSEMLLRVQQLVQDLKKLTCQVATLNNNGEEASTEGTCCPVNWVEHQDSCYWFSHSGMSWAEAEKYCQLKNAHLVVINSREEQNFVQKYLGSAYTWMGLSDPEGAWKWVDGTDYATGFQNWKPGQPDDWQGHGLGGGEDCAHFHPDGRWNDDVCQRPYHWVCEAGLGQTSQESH

binding result [1]: binds
B1: 51A12_D1 human IgG1 antibody (antibody, V domains shown)
VH: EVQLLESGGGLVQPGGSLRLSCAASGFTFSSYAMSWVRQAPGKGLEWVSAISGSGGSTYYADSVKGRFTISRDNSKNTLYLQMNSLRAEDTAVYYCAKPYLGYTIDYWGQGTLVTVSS
VL: SSELTQDPAVSVALGQTVRITCQGDSLRSYYASWYQQKPGQAPVLVIYGKNNRPSGIPDRFSGSSSGNTASLTITGAQAEDEADYYCNSRTYSYNRAVRPFGGGTKLTVL
notes: also called 51A12_D1 IgG1-converted antibody

binding result [2]: binds
B2: 51A12_H3 human IgG1 antibody (antibody, V domains shown)
VH: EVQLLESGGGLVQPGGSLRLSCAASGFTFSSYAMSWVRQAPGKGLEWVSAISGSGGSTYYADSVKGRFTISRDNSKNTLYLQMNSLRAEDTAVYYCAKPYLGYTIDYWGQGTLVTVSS
VL: SSELTQDPAVSVALGQTVRITCQGDSLRSYYASWYQQKPGQAPVLVIYGKNNRPSGIPDRFSGSSSGNTASLTITGAQAEDEADYYCNSRDYKFNRVVRNFGGGTKLTVL
notes: also called 51A12_H3 IgG1-converted antibody

binding result [2]: binds
B3: 51A12_H6 human IgG1 antibody (antibody, V domains shown)
VH: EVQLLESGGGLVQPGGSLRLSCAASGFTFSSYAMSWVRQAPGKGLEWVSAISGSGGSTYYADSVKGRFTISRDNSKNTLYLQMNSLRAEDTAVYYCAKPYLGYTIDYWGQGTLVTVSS
VL: SSELTQDPAVSVALGQTVRITCQGDSLRSYYASWYQQKPGQAPVLVIYGKNNRPSGIPDRFSGSSSGNTASLTITGAQAEDEADYYCNSRDYKWNRVVRHFGGGTKLTVL
notes: also called 51A12_H6 IgG1-converted antibody

binding result [3]: binds
B4: ASGPR 5A4 (antibody, V domains shown)
VH: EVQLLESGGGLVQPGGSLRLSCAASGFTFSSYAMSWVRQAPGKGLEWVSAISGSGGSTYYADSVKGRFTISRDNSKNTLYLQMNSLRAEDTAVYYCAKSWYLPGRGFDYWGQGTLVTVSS
VL: SSELTQDPAVSVALGQTVRITCQGDSLRSYYASWYQQKPGQAPVLVIYGKNNRPSGIPDRFSGSSSGNTASLTITGAQAEDEADYYCNSRLRSGKMVVFGGGTKLTVL
notes: the list has only its Fab and its IgG-IFNα conjugate; also called 5A4 IgG; 5A4 human IgG1 antibody

binding result [4]: no binding
Kd [5]: 4.3 nM
koff [5]: 0.00105 s⁻¹
kon [5]: 244000 M⁻¹ s⁻¹
Kd [6]: 3.76 nM
koff [6]: 0.0014 s⁻¹
kon [6]: 372000 M⁻¹ s⁻¹
binding result [7]: no binding
B5: 5A4 Fab (Fab, V domains shown)
VH: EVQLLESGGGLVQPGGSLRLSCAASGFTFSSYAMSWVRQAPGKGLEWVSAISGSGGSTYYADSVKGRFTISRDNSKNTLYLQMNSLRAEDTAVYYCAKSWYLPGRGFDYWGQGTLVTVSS
VL: SSELTQDPAVSVALGQTVRITCQGDSLRSYYASWYQQKPGQAPVLVIYGKNNRPSGIPDRFSGSSSGNTASLTITGAQAEDEADYYCNSRLRSGKMVVFGGGTKLTVL
notes: Human lambda Fab from E. coli

Kd [8]: 0.89 nM
koff [8]: 0.000499 s⁻¹
kon [8]: 557000 M⁻¹ s⁻¹
binding result [9]: binds
B6: 52C4 IgG (antibody, V domains shown)
VH: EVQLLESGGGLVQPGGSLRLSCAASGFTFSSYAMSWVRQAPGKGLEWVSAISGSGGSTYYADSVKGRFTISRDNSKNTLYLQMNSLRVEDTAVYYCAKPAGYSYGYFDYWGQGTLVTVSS
VL: SSELTQDPAVSVALGQTVRITCQGDSLRSYYASWYQQKPGQAPVLVIYGKNNRPSGIPDRFSGSSSGNTASLTITGAQAEDEADYYCNSGASSGNQLVFGGGTKLTVL
notes: also called 52C4 human IgG1 antibody
